The values that follow come from patent publication US20200024322A1 (Eli Lilly, published 2020).

Substitutions are numbered along the chain they refer to. Numbered stars: 1 amine (or outer) side, 2 acyl side, 3 side chain; on linkers, the order of the positions; unused ones are H or OH. Square brackets hold non-standard residues; d marks the D form. Side chains are listed from the residue outwards. Ends that are not written are not given here. * marks the point of attachment. C20 diacid = O=C(O)CCCCCCCCCCCCCCCCCCC(=O)*; γGlu = O=C(O)[C@H](CCC(=O)[*:2])N[*:1]; AEEA = NCCOCCOCC(=O)O; Aib = CC(C)(N)C(=O)O

The Ki is a measure of affinity in units of concentration, obtained from inhibition or displacement.

T1: human GIP receptor (human, UniProt P48546 22-466)
T1 construct: whole, on cells; Used as crude membranes of stably transfected CHO cells; also called hGIPR
T1 sequence (looked up): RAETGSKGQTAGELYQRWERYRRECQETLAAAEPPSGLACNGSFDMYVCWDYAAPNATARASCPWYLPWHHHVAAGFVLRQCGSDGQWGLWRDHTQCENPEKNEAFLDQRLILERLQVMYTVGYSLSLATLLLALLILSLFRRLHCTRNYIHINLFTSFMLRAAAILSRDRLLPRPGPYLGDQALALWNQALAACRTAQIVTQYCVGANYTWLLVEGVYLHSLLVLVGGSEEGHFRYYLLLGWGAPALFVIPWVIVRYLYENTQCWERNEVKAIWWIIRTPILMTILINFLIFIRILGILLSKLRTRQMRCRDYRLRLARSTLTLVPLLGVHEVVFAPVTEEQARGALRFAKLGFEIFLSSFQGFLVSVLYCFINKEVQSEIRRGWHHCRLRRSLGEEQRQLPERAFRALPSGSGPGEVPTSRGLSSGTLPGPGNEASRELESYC

B1: Example 13 (peptide)
peptide: Y[Aib]EGTFTSDYSILLD[Aib]IAQK([AEEA-AEEA-γGlu-C20 diacid])AFIEYLIEGGPSSGAPPPS-NH2
modifications: N-terminus assumed
SMILES: CC[C@H](C)[C@H](NC(=O)[C@H](CC(C)C)NC(=O)[C@H](Cc1ccc(O)cc1)NC(=O)[C@H](CCC(=O)O)NC(=O)[C@@H](NC(=O)[C@H](Cc1ccccc1)NC(=O)[C@H](C)NC(=O)[C@H](CCCCNC(=O)COCCOCCNC(=O)COCCOCCNC(=O)CC[C@H](NC(=O)CCCCCCCCCCCCCCCCCCC(=O)O)C(=O)O)NC(=O)[C@H](CCC(N)=O)NC(=O)[C@H](C)NC(=O)[C@@H](NC(=O)C(C)(C)NC(=O)[C@H](CC(=O)O)NC(=O)[C@H](CC(C)C)NC(=O)[C@H](CC(C)C)NC(=O)[C@@H](NC(=O)[C@H](CO)NC(=O)[C@H](Cc1ccc(O)cc1)NC(=O)[C@H](CC(=O)O)NC(=O)[C@H](CO)NC(=O)[C@@H](NC(=O)[C@H](Cc1ccccc1)NC(=O)[C@@H](NC(=O)CNC(=O)[C@H](CCC(=O)O)NC(=O)C(C)(C)NC(=O)[C@@H](N)Cc1ccc(O)cc1)[C@@H](C)O)[C@@H](C)O)[C@@H](C)CC)[C@@H](C)CC)[C@@H](C)CC)C(=O)N[C@@H](CCC(=O)O)C(=O)NCC(=O)NCC(=O)N1CCC[C@H]1C(=O)N[C@@H](CO)C(=O)N[C@@H](CO)C(=O)NCC(=O)N[C@@H](C)C(=O)N1CCC[C@H]1C(=O)N1CCC[C@H]1C(=O)N1CCC[C@H]1C(=O)N[C@@H](CO)C(N)=O
B2: Example 29 (peptide)
peptide: Y[Aib]EGTFTSDYSILLDK([AEEA-AEEA-γGlu-C20 diacid])IAQ[Aib]AFIEYLIEGGPSSGAPPPS-NH2
modifications: N-terminus assumed
SMILES: CC[C@H](C)[C@H](NC(=O)[C@H](CCCCNC(=O)COCCOCCNC(=O)COCCOCCNC(=O)CC[C@H](NC(=O)CCCCCCCCCCCCCCCCCCC(=O)O)C(=O)O)NC(=O)[C@H](CC(=O)O)NC(=O)[C@H](CC(C)C)NC(=O)[C@H](CC(C)C)NC(=O)[C@@H](NC(=O)[C@H](CO)NC(=O)[C@H](Cc1ccc(O)cc1)NC(=O)[C@H](CC(=O)O)NC(=O)[C@H](CO)NC(=O)[C@@H](NC(=O)[C@H](Cc1ccccc1)NC(=O)[C@@H](NC(=O)CNC(=O)[C@H](CCC(=O)O)NC(=O)C(C)(C)NC(=O)[C@@H](N)Cc1ccc(O)cc1)[C@@H](C)O)[C@@H](C)O)[C@@H](C)CC)C(=O)N[C@@H](C)C(=O)N[C@@H](CCC(N)=O)C(=O)NC(C)(C)C(=O)N[C@@H](C)C(=O)N[C@@H](Cc1ccccc1)C(=O)N[C@H](C(=O)N[C@@H](CCC(=O)O)C(=O)N[C@@H](Cc1ccc(O)cc1)C(=O)N[C@@H](CC(C)C)C(=O)N[C@H](C(=O)N[C@@H](CCC(=O)O)C(=O)NCC(=O)NCC(=O)N1CCC[C@H]1C(=O)N[C@@H](CO)C(=O)N[C@@H](CO)C(=O)NCC(=O)N[C@@H](C)C(=O)N1CCC[C@H]1C(=O)N1CCC[C@H]1C(=O)N1CCC[C@H]1C(=O)N[C@@H](CO)C(N)=O)[C@@H](C)CC)[C@@H](C)CC
B3: Example 6 (peptide)
peptide: Y[Aib]EGTFTSDYSILLDKK([AEEA-AEEA-γGlu-C20 diacid])AQ[Aib]AFIEYLLEGGPSSGAPPPS-NH2
modifications: N-terminus assumed
SMILES: CC[C@H](C)[C@H](NC(=O)[C@H](Cc1ccccc1)NC(=O)[C@H](C)NC(=O)C(C)(C)NC(=O)[C@H](CCC(N)=O)NC(=O)[C@H](C)NC(=O)[C@H](CCCCNC(=O)COCCOCCNC(=O)COCCOCCNC(=O)CC[C@H](NC(=O)CCCCCCCCCCCCCCCCCCC(=O)O)C(=O)O)NC(=O)[C@H](CCCCN)NC(=O)[C@H](CC(=O)O)NC(=O)[C@H](CC(C)C)NC(=O)[C@H](CC(C)C)NC(=O)[C@@H](NC(=O)[C@H](CO)NC(=O)[C@H](Cc1ccc(O)cc1)NC(=O)[C@H](CC(=O)O)NC(=O)[C@H](CO)NC(=O)[C@@H](NC(=O)[C@H](Cc1ccccc1)NC(=O)[C@@H](NC(=O)CNC(=O)[C@H](CCC(=O)O)NC(=O)C(C)(C)NC(=O)[C@@H](N)Cc1ccc(O)cc1)[C@@H](C)O)[C@@H](C)O)[C@@H](C)CC)C(=O)N[C@@H](CCC(=O)O)C(=O)N[C@@H](Cc1ccc(O)cc1)C(=O)N[C@@H](CC(C)C)C(=O)N[C@@H](CC(C)C)C(=O)N[C@@H](CCC(=O)O)C(=O)NCC(=O)NCC(=O)N1CCC[C@H]1C(=O)N[C@@H](CO)C(=O)N[C@@H](CO)C(=O)NCC(=O)N[C@@H](C)C(=O)N1CCC[C@H]1C(=O)N1CCC[C@H]1C(=O)N1CCC[C@H]1C(=O)N[C@@H](CO)C(N)=O
B4: Example 9 (peptide)
peptide: Y[Aib]EGTFTSDYSILLDSK([AEEA-AEEA-γGlu-C20 diacid])AQ[Aib]AFIEYLIEGGPSSGAPPPS-NH2
modifications: N-terminus assumed
SMILES: CC[C@H](C)[C@H](NC(=O)[C@H](CC(C)C)NC(=O)[C@H](Cc1ccc(O)cc1)NC(=O)[C@H](CCC(=O)O)NC(=O)[C@@H](NC(=O)[C@H](Cc1ccccc1)NC(=O)[C@H](C)NC(=O)C(C)(C)NC(=O)[C@H](CCC(N)=O)NC(=O)[C@H](C)NC(=O)[C@H](CCCCNC(=O)COCCOCCNC(=O)COCCOCCNC(=O)CC[C@H](NC(=O)CCCCCCCCCCCCCCCCCCC(=O)O)C(=O)O)NC(=O)[C@H](CO)NC(=O)[C@H](CC(=O)O)NC(=O)[C@H](CC(C)C)NC(=O)[C@H](CC(C)C)NC(=O)[C@@H](NC(=O)[C@H](CO)NC(=O)[C@H](Cc1ccc(O)cc1)NC(=O)[C@H](CC(=O)O)NC(=O)[C@H](CO)NC(=O)[C@@H](NC(=O)[C@H](Cc1ccccc1)NC(=O)[C@@H](NC(=O)CNC(=O)[C@H](CCC(=O)O)NC(=O)C(C)(C)NC(=O)[C@@H](N)Cc1ccc(O)cc1)[C@@H](C)O)[C@@H](C)O)[C@@H](C)CC)[C@@H](C)CC)C(=O)N[C@@H](CCC(=O)O)C(=O)NCC(=O)NCC(=O)N1CCC[C@H]1C(=O)N[C@@H](CO)C(=O)N[C@@H](CO)C(=O)NCC(=O)N[C@@H](C)C(=O)N1CCC[C@H]1C(=O)N1CCC[C@H]1C(=O)N1CCC[C@H]1C(=O)N[C@@H](CO)C(N)=O
B5: Example 7 (peptide)
peptide: Y[Aib]EGTFTSDYSILLDSK([AEEA-AEEA-γGlu-C20 diacid])AQ[Aib]AFIEYLLEGGPSSGAPPPS-NH2
modifications: N-terminus assumed
SMILES: CC[C@H](C)[C@H](NC(=O)[C@H](Cc1ccccc1)NC(=O)[C@H](C)NC(=O)C(C)(C)NC(=O)[C@H](CCC(N)=O)NC(=O)[C@H](C)NC(=O)[C@H](CCCCNC(=O)COCCOCCNC(=O)COCCOCCNC(=O)CC[C@H](NC(=O)CCCCCCCCCCCCCCCCCCC(=O)O)C(=O)O)NC(=O)[C@H](CO)NC(=O)[C@H](CC(=O)O)NC(=O)[C@H](CC(C)C)NC(=O)[C@H](CC(C)C)NC(=O)[C@@H](NC(=O)[C@H](CO)NC(=O)[C@H](Cc1ccc(O)cc1)NC(=O)[C@H](CC(=O)O)NC(=O)[C@H](CO)NC(=O)[C@@H](NC(=O)[C@H](Cc1ccccc1)NC(=O)[C@@H](NC(=O)CNC(=O)[C@H](CCC(=O)O)NC(=O)C(C)(C)NC(=O)[C@@H](N)Cc1ccc(O)cc1)[C@@H](C)O)[C@@H](C)O)[C@@H](C)CC)C(=O)N[C@@H](CCC(=O)O)C(=O)N[C@@H](Cc1ccc(O)cc1)C(=O)N[C@@H](CC(C)C)C(=O)N[C@@H](CC(C)C)C(=O)N[C@@H](CCC(=O)O)C(=O)NCC(=O)NCC(=O)N1CCC[C@H]1C(=O)N[C@@H](CO)C(=O)N[C@@H](CO)C(=O)NCC(=O)N[C@@H](C)C(=O)N1CCC[C@H]1C(=O)N1CCC[C@H]1C(=O)N1CCC[C@H]1C(=O)N[C@@H](CO)C(N)=O
B6: Example 8 (peptide)
peptide: YXEGTFTSDYSILLDKKAQXAFIEYLIEGGPSSGAPPPS
modifications: Aib2; K17((2-[2-(2-Amino-ethoxy)-ethoxy]-acetyl)2-(γ-Glu)-CO-(CH2)18-CO2H); Aib20; C-terminal NH2
B7: Example 139 (peptide)
peptide: B6 peptide with F6X, L13X, A21T
modifications: Aib2; αMeF6; αMeL13; K17((2-[2-(2-Amino-ethoxy)-ethoxy]-acetyl)2-(γ-Glu)-CO-(CH2)18-CO2H); Aib20; C-terminal NH2
B8: Example 134 (peptide)
peptide: XXEGTXTSDYSIXLDEKAQXEFIEYLIEGGPSSGAPPPS
modifications: DesTyr1; Aib2; αMeF(2F)6; αMeL13; K17((2-[2-(2-Amino-ethoxy)-ethoxy]-acetyl)2-(γ-Glu)-CO-(CH2)18-CO2H); Aib20; C-terminal NH2

One assay deals with T2, human GLP-1 receptor (human, UniProt P43220 24-463).
T2 construct: whole, on cells; Used as crude membranes of stably transfected HEK293 cells; also called hGLP1R; hGLP-1R
Kind of assay: SPA, [125I]-GLP-1 displacement, hGLP-1R membranes.
Take B1: the inhibitory constant (Ki) was 31.1 nM. This lies in the double-digit nanomolar range.
Still for that read-out and setting: the same measure for B2: 8 nM; for B3: 6.71 nM; for B4: 14.9 nM.
Take B5: the affinity, expressed as Ki, was 43.3 nM. This Ki lies about 2.9-fold higher than the previous one.
Same read-out and setting: the same measure for B6: 2.84 nM.

A further assay deals with T3, human glucagon receptor (human, UniProt P47871 26-477).
T3 construct: whole, on cells; Used as crude membranes of stably transfected HEK293 cells; also called hGcgR; hGLcgR
T3 sequence (P47871 26-477): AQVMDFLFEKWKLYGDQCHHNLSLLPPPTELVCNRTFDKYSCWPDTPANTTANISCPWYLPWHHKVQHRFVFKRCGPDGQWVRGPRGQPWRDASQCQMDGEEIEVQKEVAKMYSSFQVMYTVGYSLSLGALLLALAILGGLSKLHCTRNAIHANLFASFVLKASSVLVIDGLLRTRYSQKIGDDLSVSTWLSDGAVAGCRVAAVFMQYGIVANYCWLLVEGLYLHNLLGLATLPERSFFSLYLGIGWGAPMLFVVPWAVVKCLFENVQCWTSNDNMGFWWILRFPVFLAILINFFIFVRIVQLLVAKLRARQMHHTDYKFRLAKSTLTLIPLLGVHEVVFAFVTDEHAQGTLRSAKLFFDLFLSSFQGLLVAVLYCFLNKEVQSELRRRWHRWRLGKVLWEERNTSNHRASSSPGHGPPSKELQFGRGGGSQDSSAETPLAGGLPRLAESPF
Kind of assay: SPA, [125I]-Gcg displacement, hGcgR membranes.
For B2, the affinity corresponds to a Ki of 132 nM.
For B3, the inhibition constant Ki was 55.8 nM.
Consider B4, for which the inhibitory constant (Ki) is 375 nM.
The molecule B5 returned a Ki of 198 nM. Compared with the last molecule, the Ki is about 1.9-fold lower.
The same measure, in the same setting: the same measure for B6: 206 nM; for B7: 105 nM.
On the same count and under the same terms, the same measure for B8: 60.5 nM.

Another assay has as its target T1, human GIP receptor. Kind of assay: SPA, [125I]-GIP displacement, hGIPR membranes.
With B1, the Ki stood at 0.296 nM.
Same read-out and setting: the value for B2 was 0.377 nM; that for B3 was 0.0835 nM.
The same measure, in the same setting: the value for B4 was 0.127 nM.
On the same count and under the same terms, the value for B5 was 0.252 nM.
B6: the inhibitory constant (Ki) turned out to be 0.0772 nM.
The same measure, in the same setting: the value for B7 was 0.036 nM; that for B8 was 0.14 nM.
